Data set [1] is described as follows: AFM imaging of peptide and peptide/siRNA nanostructure. In kind it is physicochemical. Conditions: for Diameter of the nanospheres / Nanostructure of peptide: peptide alone. The text has this:
Nanostructure plays an important role in formulation of agents (e.g., therapeutics, such as siRNA).

For another data set, the system named is mouse tumor model. As to the kind of experiment: Delivery of siRNA to tumor cells in vivo. Conditions: siRNA/peptide complex administered to mouse tumor model. As for the experimental part: The present Example describes, among other things, an exemplary use of surfactant peptides for delivery of siRNA to tumor cells in vivo. siRNA is complexed with Ac-A4K-NH2 (SEQ ID NO: 55), Ac-A3KA3-NH2 (SEQ ID NO:55), Ac-A6K-NH2 (SEQ ID NO: 105), or a control peptide. The siRNA and peptide complexes arrange into nanospherical structures. A composition comprising the nanospherical structures is administered to a mouse tumor model. One or more cancer associated genes is suppressed and the size of the tumor decreases.

Another data set has as its system MCF-7 cell. As to the kind of experiment: Cell toxicity, luciferase emission with peptides only or peptides/negative control siRNA. In kind it is cell-based. The text has this:
siRNA (Luciferase GL3 duplex) was complexed with Ac-A4K-NH2 (SEQ ID NO: 55), Ac-A3KA3-NH2 (SEQ ID NO:55), Ac-A6K-NH2 (SEQ ID NO: 105), and a control agent (DharmaFECT 1; commercially available lipid transfection agent). The siRNA and peptide complexes arranged into nanospherical structures. A composition comprising the nanospherical structures was provided to tumor cells (MCF-7 cell; breast cancer cell line) in vitro to preliminary transfection efficacy and cell toxicity. Two methods were utilized for the present Example. For Method 1, MCF-7 cells were cultured on a plate. The siRNA and peptide complexes were added into the culture medium over the cells. The culture dish (96 wells) containing the siRNA and peptide complexes and the cells was incubated for 48 hours. For Method 2, a concentrated suspension of MCF-7 cells (5×10^6 cells/ml) was prepared in a tube. The siRNA and peptide complexes were applied into the suspension. The cell mixture was incubated for 1 hour in the tube. The cell mixture was plated in the culture dish and incubated for 48 hours. Luciferase emission from each sample was observed. Table 4 summarizes experimental conditions e.g., concentration of siRNA and peptide surfactants, charge ratio, and types of siRNA (e.g., Luciferase GL3 duplex or negative control thereof). The buffer used in this Example was Opti-MEM1 (serum-free). As control samples, buffer only, negative control (NC) siRNA with or without the peptide surfactants, DharmaFECT 1 with or without siRNA (or NC siRNA) were tested with the cells. Cell toxicity.

Data set [2] is described as follows: Zeta potential by Zetasizer Nano ZS. The class given is physicochemical. The conditions noted are these: 0.5 w/v % in an aqueous solution; in mV (unit assumed). As for the experimental part:
Zeta potentials were measured by Zetasizer Nano ZS (Malvern) to characterize electrokinetic potential of the complex. Ac-A4K-NH2 (SEQ ID NO:55) concentration was 0.5 w/v % in an aqueous solution. siRNA (ribophorin II, RPN2) concentration was controlled for their various charge ratios of A4K/siRNA. The zeta potential of Ac-A4K-NH2 (SEQ ID NO:55) alone was +21.9, which represents that the surface of A4K nanosphere was positively charged because of the primary amine of lysine in Ac-A4K-NH2 (SEQ ID NO:55). As the equipment only detects dispersed phases larger than about 3.8 nm and the size of siRNA in water is about 2 nm in diameter, the measurement only reads the electrokinetic potential of Ac-A4K-NH2 (SEQ ID NO:55) or Ac-A4K-NH2 (SEQ ID NO:55)/siRNA complexes, not unassociated siRNA.

Data set [3] in a line: Transmittance study of surfactant peptides and peptide/siRNA complexes in aqueous solution. The class given is physicochemical. The conditions noted are these: for Transmittance (%) With siRNA (peptide %/siRNA %) 0.1%/0.01%: peptide 0.1%/siRNA 0.01%; for Transmittance (%) With siRNA (peptide %/siRNA %) 0.1%/0.01% / Transmittance (%) With siRNA (peptide %/siRNA %) 0.5%/0.05% / Transmittance (%) Peptide alone 0.1% (w/v) / Transmittance (%) Peptide alone 0.5% (w/v): aqueous solution pH 7.5; for Transmittance (%) With siRNA (peptide %/siRNA %) 0.1%/0.01% / Transmittance (%) With siRNA (peptide %/siRNA %) 0.5%/0.05%: * = significantly cloudy and phase-separated; for Transmittance (%) With siRNA (peptide %/siRNA %) 0.5%/0.05%: peptide 0.5%/siRNA 0.05%; for Appearance of peptide mixed with siRNA in transmittance study: peptide 0.1% and 0.5% (w/v) with siRNA 0.01% and 0.05% (w/v), pH 7.5.

For data set [4] the following is noted: literature reports; cited from earlier work.
Setting [5] is: MCF-7, peptide only or with NC siRNA, 48 hours, Methods 1 and 2.

Read-outs that look alike come from different tables or passages of the source. Where a SMILES comes first, the peptide text is derived from it.

On to `CC(=O)N[C@@H](C)C(=O)N[C@@H](C)C(=O)N[C@@H](C)C(=O)N[C@@H](CCCCN)C(=O)N[C@@H](C)C(=O)N[C@@H](C)C(=O)N[C@@H](C)C(N)=O` [Ac-A3KA3-NH2, Ac-AAAKAAA-NH2] (Ac-AAAKAAA-NH2), for which, in data set [1], the “Diameter of the nanospheres” value worked out at 30 nm and the Nanostructure of peptide result is on record as “nanospheres (i.e., spherical nanovesicles)”. For the same compound, in the data set on mouse tumor model, the “Cancer associated gene expression” value is reported as “suppressed” and the “Size of the tumor” value is recorded as “decreases”. In addition, in the data set on MCF-7 cell, the “Cell toxicity (decrease in luciferase emission) compared with DharmaFECT” value is “less toxic than DharmaFECT”.

As to `CC(=O)N[C@@H](C)C(=O)N[C@@H](C)C(=O)N[C@@H](C)C(=O)N[C@@H](C)C(=O)N[C@@H](CCCCN)C(N)=O` [Ac-A4K-NH2, Ac-AAAAK-NH2] (Ac-AAAAK-NH2), in data set [1], the “Diameter of the nanospheres” value is given as 85 nm and the Nanostructure of peptide result is recorded as “nanospheres (i.e., spherical nanovesicles)”. Moreover, in the data set on mouse tumor model, the “Cancer associated gene expression” value is “suppressed” and the “Size of the tumor” value is recorded as “decreases”. In addition, in the data set with MCF-7 cell (setting [5]), the “Cell toxicity (decrease in luciferase emission) compared with DharmaFECT” value is listed as “less toxic than DharmaFECT”. For the same compound, in data set [2], the “Zeta potential of peptide alone” value is “+21.9”.

As for `CC(=O)N[C@@H](C)C(=O)N[C@@H](C)C(=O)N[C@@H](C)C(=O)N[C@@H](C)C(=O)N[C@@H](C)C(=O)N[C@@H](C)C(=O)N[C@@H](CCCCN)C(N)=O` [Ac-A6K-NH2, reference compound] (Ac-AAAAAAK-NH2), the “Thickness of each layer of double layer structure” value in data set [1] (0.1% (w/v)) was 0.8 nm. Moreover, in the data set on mouse tumor model, the “Cancer associated gene expression” value was “suppressed” and the “Size of the tumor” value was “decreases”. Besides, the “Cell toxicity (decrease in luciferase emission) compared with DharmaFECT” value with MCF-7 cell (setting [5]) is “less toxic than DharmaFECT”.

As to “A6K2A6: exemplary conventional self-assembling peptide for comparison (AAAAAAKKAAAAAA) [reference compound]”, in data set [3], the “Transmittance (%) With siRNA (peptide %/siRNA %) 0.1%/0.01%” value is 62.9* %, the “Transmittance (%) With siRNA (peptide %/siRNA %) 0.5%/0.05%” value is reported as 12.7* %, the “Transmittance (%) Peptide alone 0.1% (w/v)” value is given as 98.5% and the “Transmittance (%) Peptide alone 0.5% (w/v)” value was determined as 83.1%.

With AAAAAAK [A6K, reference compound], in data set [3], the “Appearance of peptide mixed with siRNA in transmittance study” value (from here on “Appearance of peptide mixed with siRNA”) was “cloudy and phase separated”; the “Transmittance (%) With siRNA (peptide %/siRNA %) 0.1%/0.01%” value is 38.4* %; the “Transmittance (%) With siRNA (peptide %/siRNA %) 0.5%/0.05%” value is 15.3* %; the “Transmittance (%) Peptide alone 0.1% (w/v)” value is 94.8%. In data set [3], the “Transmittance (%) Peptide alone 0.5% (w/v)” value came out at 98.7%. In addition, in data set [4], the “Nanostructure / self-assembly (previously reported)” value is “nanotubes”.

In the case of “AAAAAK [A5K, exemplary conventional self-assembling peptide for comparison, reference compound]”, in data set [3], the “Appearance of peptide mixed with siRNA” value is “cloudy and phase separated”; the “Transmittance (%) With siRNA (peptide %/siRNA %) 0.1%/0.01%” value is on record as 95.5%; the “Transmittance (%) With siRNA (peptide %/siRNA %) 0.5%/0.05%” value is reported as 22.7* %; the “Transmittance (%) Peptide alone 0.1% (w/v)” value stood at 99.2%. Also, the “Transmittance (%) Peptide alone 0.5% (w/v)” value in data set [3] was 71.9%.

Turning to AAAAK [A4K], in data set [1], the Nanostructure of peptide entry is on record as “nanospheric structures (spherical nanovesicles)”. Also, in data set [3], the “Appearance of peptide mixed with siRNA” value was “transparent and substantially without phase separation”; the “Transmittance (%) With siRNA (peptide %/siRNA %) 0.1%/0.01%” value came out at 98.7%; the “Transmittance (%) With siRNA (peptide %/siRNA %) 0.5%/0.05%” value is 97.5%; the “Transmittance (%) Peptide alone 0.1% (w/v)” value is 99.4%. Moreover, the “Transmittance (%) Peptide alone 0.5% (w/v)” value in data set [3] is 97.8%. For the same compound, in data set [4], the “Nanostructure / self-assembly (previously reported)” value is listed as “does not exhibit relevant self-assembly in water”.

For the compound AAAK [A3K], in data set [1], the Nanostructure of peptide entry is “nanospheric structures”. Besides, in data set [3], the “Appearance of peptide mixed with siRNA” value is “transparent and substantially without phase separation”; the “Transmittance (%) With siRNA (peptide %/siRNA %) 0.1%/0.01%” value is reported as 81.1%; the “Transmittance (%) With siRNA (peptide %/siRNA %) 0.5%/0.05%” value was determined as 77.3%; the “Transmittance (%) Peptide alone 0.1% (w/v)” value turned out to be 96.2%. Further, the “Transmittance (%) Peptide alone 0.5% (w/v)” value in data set [3] is recorded as 99.6%.

Take AAAKAAA [A3KA3]: in data set [1], the Nanostructure of peptide entry is on record as “nanospheric structures (spherical nanovesicles)”. In data set [3], the “Appearance of peptide mixed with siRNA” value is “transparent and substantially without phase separation”; the “Transmittance (%) With siRNA (peptide %/siRNA %) 0.1%/0.01%” value stood at 98.7%; the “Transmittance (%) With siRNA (peptide %/siRNA %) 0.5%/0.05%” value is given as 88.2%; the “Transmittance (%) Peptide alone 0.1% (w/v)” value stood at 99.2%. For the same compound, the “Transmittance (%) Peptide alone 0.5% (w/v)” value in data set [3] was found to be 97.5%.

On to Ac-AAAK-NH2 [Ac-A3K-NH2], for which, in data set [1], the “Diameter of the nanospheres” value is reported as 28 nm and the Nanostructure of peptide result is “nanospheres”.

The record behind these values is US20190231706A1, “SURFACTANT PEPTIDE NANOSTRUCTURES AND USES IN DRUG DELIVERY” (3-D Matrix, Ltd., priority 2017, published 2019).
